Results reported in the RNAGym collection of RNA variant scans (doi:10.7554/elife.90254).

B1: OR4K15 (parent)
chain: GUUAACGGUCAUAGGCCAUGGAAACUAGGAGCACCAUUUCGCUGCCAGUGAAGAAAUGAACAAAGAAAAUCUGGGCCAGGCAGGCAUCAAAAGAAAUAGUCUUGCGCUCAACCAGAAAGUCUGUAAUCAUUUUAAGGGUA

Variants of: B1
Assay: self-cleavage, relative activity (ratio to wild type); higher = more cleavage; in vitro, sequencing; the parent is a self-cleaving ribozyme

Variant | self-cleavage
GUUAAAGGUCAUAGGCCAUGGAAACUAGGAGCUCCAUUUCGCUGCCAGUGAAGAAAUGAACAAAGAAAAUCUGGGCCAGGCAGGCAUCAAAAGAAAUAGUCUUGCGCUCAACCAGAAAGUCUGUAAUCAUUUUAAGGGUA [C6A A33U] | 1.06
GUUAAAGGUCAUAGGCCAUGGAAACUAGGAGCACCAUAUCGCUGCCAGUGAAGAAAUGAACAAAGAAAAUCUGGGCCAGGCAGGCAUCAAAAGAAAUAGUCUUGCGCUCAACCAGAAAGUCUGUAAUCAUUUUAAGGGUA [C6A U38A] | 0.42
GUUAAUGGUCAUAGGCCAUGGAAACUAGGAGCUCCAUUUCGCUGCCAGUGAAGAAAUGAACAAAGAAAAUCUGGGCCAGGCAGGCAUCAAAAGAAAUAGUCUUGCGCUCAACCAGAAAGUCUGUAAUCAUUUUAAGGGUA [C6U A33U] | 1.05
GUUAAUGGUCAUAGGCCAUGGAGACUAGGAGCACCAUUUCGCUGCCAGUGAAGAAAUGAACAAAGAAAAUCUGGGCCAGGCAGGCAUCAAAAGAAAUAGUCUUGCGCUCAACCAGAAAGUCUGUAAUCAUUUUAAGGGUA [C6U A23G] | 1.15
GUUAAAGGUCAUAGGCCAUGGAAACUAGGAGCACCAUUUCGCUGCCAGGGAAGAAAUGAACAAAGAAAAUCUGGGCCAGGCAGGCAUCAAAAGAAAUAGUCUUGCGCUCAACCAGAAAGUCUGUAAUCAUUUUAAGGGUA [C6A U49G] | 0.61
GUUAUCGGUCAUAGGCCAUGGAAACUAGGAGCACCAUUUCGCUGCCAGUGAAGAAAUGAACAAAGAAAAUCUGGGCCAGGCAGGCAUCAAAAGAAAUAGUCUUGCGCUCAACCAGAAAGUCUGCAAUCAUUUUAAGGGUA [A5U U124C] | 0.99
GUUAAUGGUCAUAGGCCAUGGAAACUAGGAGCACCAUUUCGCUGCCAGUGAAGAAAUGAACAAAGAAAAUCUGGGCCAGGCAGGCAUCAAAAGAAAUAGUCUUGCGCUCAACCUGAAAGUCUGUAAUCAUUUUAAGGGUA [C6U A114U] | 0.07
GUUAAAGGUCGUAGGCCAUGGAAACUAGGAGCACCAUUUCGCUGCCAGUGAAGAAAUGAACAAAGAAAAUCUGGGCCAGGCAGGCAUCAAAAGAAAUAGUCUUGCGCUCAACCAGAAAGUCUGUAAUCAUUUUAAGGGUA [C6A A11G] | 2.1
GUUAAUGGUCGUAGGCCAUGGAAACUAGGAGCACCAUUUCGCUGCCAGUGAAGAAAUGAACAAAGAAAAUCUGGGCCAGGCAGGCAUCAAAAGAAAUAGUCUUGCGCUCAACCAGAAAGUCUGUAAUCAUUUUAAGGGUA [C6U A11G] | 0.47
GUUAAAGGUCAUAGGCCAUGGAAACUAGGAGCACCAUUUCGCUGCCAGUGAAGAAAUGAACAAAGAAAAUCUGGGCCAGGCAGGCAUCAAAAGAAAUAGUCUUGCGCUCAACCAGAAAGUCUGUGAUCAUUUUAAGGGUA [C6A A125G] | 0.29
GUUAAAGGUCAUAGGCCAUGGAAACUAGGAGCACCAUUUCGCUGCCAGUGAAGAAAUGAACAAAGAAAAUCUGGGCCAGGCAGGCAUCUAAAGAAAUAGUCUUGCGCUCAACCAGAAAGUCUGUAAUCAUUUUAAGGGUA [C6A A89U] | 1.38
GUUAAGGGUCAUAGGCCAAGGAAACUAGGAGCACCAUUUCGCUGCCAGUGAAGAAAUGAACAAAGAAAAUCUGGGCCAGGCAGGCAUCAAAAGAAAUAGUCUUGCGCUCAACCAGAAAGUCUGUAAUCAUUUUAAGGGUA [C6G U19A] | 1.65
GUUAAUGGUCAUAGGCCAUGGAAACUAGGAGCACCAUUUCGCUGCCAGUGAAGAAAUGAACAAAGAAAAUCUGGGCCAGGCGGGCAUCAAAAGAAAUAGUCUUGCGCUCAACCAGAAAGUCUGUAAUCAUUUUAAGGGUA [C6U A82G] | 0.72
GUUAAAGGUCAUAGGCCAUGGAAACUAGGAGCACCAUUUCGCUGCCAGUGAAGAAAUGAAUAAAGAAAAUCUGGGCCAGGCAGGCAUCAAAAGAAAUAGUCUUGCGCUCAACCAGAAAGUCUGUAAUCAUUUUAAGGGUA [C6A C61U] | 0.76
GUUAAAGGUCAUAGGCCAUGGAAACUAGGAGCACCAUUUCGCUGCCAGUGAAGAAAUGAGCAAAGAAAAUCUGGGCCAGGCAGGCAUCAAAAGAAAUAGUCUUGCGCUCAACCAGAAAGUCUGUAAUCAUUUUAAGGGUA [C6A A60G] | 0.5
GUUAAUGGUCAUAGGCCAUGGAAACUAGGAGCACCAUUUCGCUGCCAGUGAAGAAAUGAACAAAGAGAAUCUGGGCCAGGCAGGCAUCAAAAGAAAUAGUCUUGCGCUCAACCAGAAAGUCUGUAAUCAUUUUAAGGGUA [C6U A67G] | 1.39
GUUAAGGGUCAUAGGCCAUGGAAACUAGGAGCACCAUUUCGCUGCCAGUGAAGAAAUGAACAAAGAAAAUCUGGGCCAGGCAGGCACCAAAAGAAAUAGUCUUGCGCUCAACCAGAAAGUCUGUAAUCAUUUUAAGGGUA [C6G U87C] | 0.65
GUUAAUGGUCAUAGGCCAUGGAAACUAGGAGCACCAUUUCGCUGCCAGUGAAGAAAUGAACAAAGAAAAUCUGGGCCAGGCAGGCAUCAAAAGAAAUAGUCUUGCGCUCAACCAGAAAGUCUGUGAUCAUUUUAAGGGUA [C6U A125G] | 0.53
GUUAAGGGUCAUAGGCCAUGGAAACUAGGAGCACCAUUUCGCUGCCAGUGAAGAAAUGAACAAAGAAAAUCUGGGCCAGGCAGGCAUCAAAAGAAAUAGUCUUGCGCUCAACCAGAAAGUCUGUAGUCAUUUUAAGGGUA [C6G A126G] | 1.2
GUUAAUGGUCAUAGGCCAUGGAAACUAGGAGCACCAUUUCGCUGACAGUGAAGAAAUGAACAAAGAAAAUCUGGGCCAGGCAGGCAUCAAAAGAAAUAGUCUUGCGCUCAACCAGAAAGUCUGUAAUCAUUUUAAGGGUA [C6U C45A] | 1.31
GUUAAAGGUCAUAGGCCAUGGAAACUAGGAGCACCAUUUCGCUGCCAGUGAAGAGAUGAACAAAGAAAAUCUGGGCCAGGCAGGCAUCAAAAGAAAUAGUCUUGCGCUCAACCAGAAAGUCUGUAAUCAUUUUAAGGGUA [C6A A55G] | 1.13

Variant | self-cleavage
GUUAAAGGUCAUAGGCCAUGGAAACUAGGAGCACCAUUUCGCUGCCAGUGAAGAAAUGAACAAAGAAAAUCUGGGCCAGGCAGGCAUCAAAAGGAAUAGUCUUGCGCUCAACCAGAAAGUCUGUAAUCAUUUUAAGGGUA [C6A A94G] | 0.36
GUUAAUGGUCAUAGGCCAUGGAAACUAGGAGCACCAUUUCGCUGCCAGUGAAGGAAUGAACAAAGAAAAUCUGGGCCAGGCAGGCAUCAAAAGAAAUAGUCUUGCGCUCAACCAGAAAGUCUGUAAUCAUUUUAAGGGUA [C6U A54G] | 0.92
GUUAAUGGUCAUAGGCCAUGGAAACUAGGAGCACCAUUUCGCUGCCAGUGAAGAAAUGAACGAAGAAAAUCUGGGCCAGGCAGGCAUCAAAAGAAAUAGUCUUGCGCUCAACCAGAAAGUCUGUAAUCAUUUUAAGGGUA [C6U A62G] | 0.56
GUUAAUGGUCAUAGGCCAUGGAAACUAGGAGCACCAUUUCGCUGCCAGUGAAGAAAUGAACAAAGAAAAUCUGGGCCAGGCAGGCAUCAAAAGAAGUAGUCUUGCGCUCAACCAGAAAGUCUGUAAUCAUUUUAAGGGUA [C6U A96G] | 1.1
GUUAUCGGUCAUAGGCCAUGGAAACUAGGAGCACCAUUUCGCUGCCAGUGAAGAAAUGAACAAAGAAAAUCUGGGCCAGGCAGGCAUCAAAAGAAAUAGUCUUGCGCUCAACCAGAAAGCCUGUAAUCAUUUUAAGGGUA [A5U U120C] | 0.76
GUUAAUGGUCAUAGGCCAUGGAAACUAGGAGCACCAUUUCGCUGCCAGUGAAGAAAUGAGCAAAGAAAAUCUGGGCCAGGCAGGCAUCAAAAGAAAUAGUCUUGCGCUCAACCAGAAAGUCUGUAAUCAUUUUAAGGGUA [C6U A60G] | 0.8
GUUAAUGGUCAUAGGCCGUGGAAACUAGGAGCACCAUUUCGCUGCCAGUGAAGAAAUGAACAAAGAAAAUCUGGGCCAGGCAGGCAUCAAAAGAAAUAGUCUUGCGCUCAACCAGAAAGUCUGUAAUCAUUUUAAGGGUA [C6U A18G] | 0.91
GUUAUCGGUCAUAGGCCAUGGAAACUAGGAGCACCAUUUCGCUGCCAGUGAAGAAAUGAACAAAGAAAAUCUGGGCCAGGCAGGCAUCAAAAGAAAUAGUCUUGCGCUCAACCAGAAAGUCUGUAAUCAUUUUAAGGGCA [A5U U139C] | 0.93
GUUAAUGGUCAUAGGCCAUGGAAACUAGGAGCACCAUUUCGCUGCCAGUGAAGAAAUGAACAAAGAAAAUCUGGGCCAGGCAGGCAUCAAAAGAAAUAGUCUUGCUCUCAACCAGAAAGUCUGUAAUCAUUUUAAGGGUA [C6U G106U] | 0.06
GUUAAAGGCCAUAGGCCAUGGAAACUAGGAGCACCAUUUCGCUGCCAGUGAAGAAAUGAACAAAGAAAAUCUGGGCCAGGCAGGCAUCAAAAGAAAUAGUCUUGCGCUCAACCAGAAAGUCUGUAAUCAUUUUAAGGGUA [C6A U9C] | 1.47
GUUAAUGGUCAUAGGCCAUGGAAACUAGGAGCACCAUUUCGCUGCCAGUGAAGAAAUGAACAAAGAAGAUCUGGGCCAGGCAGGCAUCAAAAGAAAUAGUCUUGCGCUCAACCAGAAAGUCUGUAAUCAUUUUAAGGGUA [C6U A68G] | 0.79
GUUAAAGGUCAUAGGCCAUGGAAACUAGGAGCACCAUUUCGCUGCCAGUGAAGAAAUGAACAAAGAGAAUCUGGGCCAGGCAGGCAUCAAAAGAAAUAGUCUUGCGCUCAACCAGAAAGUCUGUAAUCAUUUUAAGGGUA [C6A A67G] | 0.72
GUUAAAGGUCAUAGGCCAUGGAAACUAGGAGCACCAUUUCGCUGCCAGUGAAGAAAUGAACAAAGAAAAUCUGGGCCAGGCAGGCAUCAAAAGAAAUAGUCUUGCGCUCAACCAGAAAGUCUGAAAUCAUUUUAAGGGUA [C6A U124A] | 0.95
GUUAAUGGUCAUAGGCCAUGGAAACUAGGAGCACCAUUUCGCUGCCAGUGAAGAAAUGAACAAAGAAAAUCUGGGCCAGGCAGGCAUCAAAAGAAAUAGUCUUGCGCUCAACCAGAAGGUCUGUAAUCAUUUUAAGGGUA [C6U A118G] | 1.06
GUUAAUGGUCAUAGGCCAUGGAAACUAGGAGCACCAUUUCGCUGCCAGUGAAGAAAUGAACAAAGAAAAUCUGGGCCGGGCAGGCAUCAAAAGAAAUAGUCUUGCGCUCAACCAGAAAGUCUGUAAUCAUUUUAAGGGUA [C6U A78G] | 0.4
GUUAAUGGUCAUAGGCCAUGGAAACUAGGAGCACCAUUUCGCUGCCAGUGAAGAAAUGAACAAAGAAAAUCUGGGCCUGGCAGGCAUCAAAAGAAAUAGUCUUGCGCUCAACCAGAAAGUCUGUAAUCAUUUUAAGGGUA [C6U A78U] | 0.25
GUUAAGGGUCAUAGGCCAUGGAAACUAGGAGCACCAUUUCGCUGCCAGUGAAGAAAUGAACAAAGAAAAUCUGGGCCAGGCAGGCAUCAAAAGAAAUAGUCUUGCGCUCAACCAGAAAGUCUGUAAUCACUUUAAGGGUA [C6G U130C] | 0.63
GUUAUCGGUCAUAGGCCAUGGAAACUAGGAGCACCAUUUCGCUGCCAGUGAAGAAAUGAACAAAGAAAAUCUGGGCCAGGCAGGCAUCAAAAGAAAUAGUCUUGCGCUCAACCAGAAAGUCUGUAAUCAUCUUAAGGGUA [A5U U131C] | 1.52
GUUAAAGGUCAUAGGCCAUGGAAACUAGGAGCACCAUUUCGCUGCCAGUGAAGAAAUGAACAAAGAAAAUCUGGGCCAGGCAGGCAUCAAAAGAAAUAGUCUUGCGCUCAACCAGGAAGUCUGUAAUCAUUUUAAGGGUA [C6A A116G] | 0.77
GUUAAAGGUCAUAGGCCAUGGAAACUAGGAGCACCAUUUCGCCGCCAGUGAAGAAAUGAACAAAGAAAAUCUGGGCCAGGCAGGCAUCAAAAGAAAUAGUCUUGCGCUCAACCAGAAAGUCUGUAAUCAUUUUAAGGGUA [C6A U43C] | 0.5
